Experimental data taken from patent US7670820B2, “Chitinase and uses thereof” (Academia Sinica, priority 2007, dated 2010).
Several values for one entry are separate records, joined by “and”; a condition that tells them apart may be missing. Identical values can stand only once. Like-named read-outs stand apart in the source and are kept apart here.

Experiments:
CpCHI = type: biochemical, Carica papaya
Description: (§1) Chitinase activity was generally measured using glycol chitin as a substrate. All enzymes other than CpCHI, were purchased from Promega (Madison, Wis.). Chemicals were purchased from Merck (Darmstadt, Germany). An enzyme solution (10 μL) was added to 100 μL of 1% (w/v) glycolchitin dissolved in 90 μL of a sodium acetate buffer (100 mM, pH 5.0), and was incubated at 30° C. for 3 hours. The reducing end group produced was measured calorimetrically at 420 nm with 200 μL of a potassium ferricyanide (K3Fe(CN)6) reagent according to the method descried in Boller et al., 1983, Planta. 157, 22-31. Reduced sugar levels were determined relative to N-acetyl-β-D-glucosamine standards of 0-150 μg mL^−1. One unit of chitinase activity is defined as the amount of enzyme producing 1 μmol reducing sugar per minute at 30° C. Substrate and enzyme blanks were also prepared in which the enzyme or substrate was incubated with a buffer. All measured values of absorbency were normalized against appropriate blank absorbencies. In this example, collodial chitin and chitosan were also used as substrate for subtract specificity analysis.
To analyze the effect of metals and other factors on chitinase activity, the enzyme was preincubated with a 10 mM of different metals and inhibitors. After 30 minutes, the remaining chitinase activity was measured in the manner described above.

[1] = type: physicochemical
Description: The pH stability of recombinant CpCHI was determined. Briefly, purified recombinant CpCHI was incubated in buffers with pH from 3.0 to 10.0 at 30° C. for 3 hours. The residual activity was then determined at a standard condition (30° C. for 3 hours at pH 6.0). The results were averaged from three independent experiments.
The stability of recombinant CpCHI during long-term storage was examined. […] The enzyme retained more than 60% of its activity for 3 weeks at 30° C. and more than 50% activity for 3 weeks at 37° C. The results were also averaged from three independent experiments.

Alternaria brassicicola = assay: Inhibition of spore germination; type: cell-based; details: 24° C. for 24 hours
Description: Assays were also carried out to examine effects of CpCHI on Alternaria brassicicola, a fungus isolated from cabbages. The fungus was cultured in potato dextrose agar (DIFCO) for 2 weeks. After sporulation, the spores of the fungus were suspended in water to a concentration of 10^4 spores mL^−1. A fungal spore stock (approximately 500 spores) was cultured at 24° C. for 24 hours in the following solutions: (A) H2O, (B) TE buffer (10 mM Tris-HCl pH 7.5, 1 mM EDTA), (C) 5 μM CpCHI in TE buffer, and (D) 10 μM CpCHI in TE buffer. The inhibition of spore germination was examined under a light microscope at 200× amplification (Li et al., 2003, Plant Cell Physiol. 44, 1162-1167). The percentage of germination was calculated from 10 different observations. All experiments were conducted in triplicates.

Sclerotium rolfsii [2] = assay: Disease resistance assay on detached leaves; type: in vivo; details: for pathogenesis inhibition: day 4 after inoculation
Description: (§2) The effects of recombinant CpCHI on the growth of Phytophthora sp., Sclerotium rolsii, and Rhizoctonia solani were examined using standard methods. Disease resistance assays were carried out using detached leaves of cabbage, bell pepper, and tomato that were inoculated with each of the pathogens. Cabbage (Brassica oleracea), bell pepper (Capsicam annuum), and tomato (Solanum lycopersicum) were obtained from Known-You Seed CO., LTD. An agar plug containing the pathogen was placed on the center of leaves. At day 1 day after inoculation, the detached leaves began to show lesions surrounded by yellow halos. Then, different solutions, including H2O, a TE buffer (10 mM Tris-HCl pH 7.5, 1 mM EDTA), or 5, 10, 15 μM CpCHI in the TE buffer was sprayed onto the leaves. At day 4 after inoculation, the pathogenesis inhibition by 5, 10, or 15 μM CpCHI was about 37%, 83%, and 98%, respectively (Table 3). […] Also, recombinant CpCHI inhibited the growth of these three fungi with as little as 15 μM, and the inhibited activity lasted for 7 days.

E. coli AD494 = assay: Antibacterial activity, growth suppression (density at 600 nm); type: cell-based; details: E. coli AD494, LB medium
Description: (§3) Experiments were conducted to examine recombinant CpCHI's ability to suppress the growth of E. coli ED2566 or E. coli AD494. Briefly, the E. coli strain was grown at 37° C. in an LB medium with shaking at 225 rpm overnight. Then, the overnight culture was 100× diluted in a fresh LB medium containing 1 μM, 1.5 μM, 2 μM, 2.5 μM, or 3 μM CpCHI. A TE buffer (10 mM Tris-HCl pH7.5, 1 mM EDTA) was used as a control. Changes in density at 600 nm were monitored. The assays were conducts in triplicates and the average were recorded to examine the inhibition of bacterial growth.

E. coli ED2566 = assay: as above; type: cell-based; details: E. coli ED2566, LB medium
Description: as §3

[3] = HPLC analysis of chitin hydrolysis by CpCHI; type: biochemical
Description: Chitin hydrolysis was carried out in a phosphate buffer (100 mM, pH 6) at 30° C. with shaking. The concentrations of chitinase and glycol chitin suspension were 750 ng μL^−1 and 100 μg mL^−1, respectively. The reactions were quenched with 10% (v/v) acetic acid. […] The column was connected to an Agilent Technologies 1100 series HPLC system under the control of a Thermo Finnigan LCQ DECA electrospray mass spectrometer. The mass-to-charge ratios (m/z) of the expected oligosaccharides were selected as follows: Glc-NAc (221.9), (GlcNAc)2 (425.5), (GlcNAc)3 (627.6), (GlcNAc)4 (830.8), (GlcNAc)5 (1034.0), (GlcNAc)6 (1237.2), and (GlcNAc)7 (1440.0).

[4] = Chitinase activity with glycol chitin as substrate (colorimetric reducing-sugar assay); type: biochemical
Description: as §1
The optimal pH of the chitiolytic activity of CpCHI was determined by incubating the purified recombinant enzyme (5 μg) at different pH (3-10) at 30° C. for 3 hours using glycol chitin as the substrate. An acetate buffer (100 mM) was used for pH 3-5, a phosphate buffer (100 mM) for pH 6˜7, a Tris-HCl buffer (100 mM) for pH 8, and a glycine-NaOH buffer for pH 9 and 10. The optimal temperature was determined by incubating the purified chitinase (5 μg) at different temperatures (10˜90° C.) at pH 6.0 for 3 hours using glycol chitin as the substrate. The highest activity was calculated as relative activity (RA) 100%.

[5] = Chitinase substrate specificity, collodial chitin as substrate; type: biochemical; details: relative to glycol chitin
Description: as §1

Rhizoctonia solani = assay: Antifungal activity, growth / hypha extension inhibition; type: cell-based
Description: (§4) The antifungal activity of recombinant chitinase protein was assessed by the hypha extension inhibition assay. Sclerotium rolfsii and Phytophthora sp. were provided from Hualien District Agricultural Research and Extension Station. Rhizoctonia solani and Alternaria brassicicola were provided by Dr. Jenn-Wen Hung of the Department of Plant Pathology of National Chung-Hsing University. A disc of each strain of fungus was removed from an actively growing fungal culture, and placed in the center of a fresh potato dextrose agar plate. After incubation at room temperature for 3 to 4 days, the recombinant chitinase or a control buffer (10 mM Tris-HCl pH7.5, 1 mM EDTA) were separately applied into a pool, which was 1 cm from the perimeter. The inhibition of the hypha extension was detected as a crescent-shaped zone of inhibition around the peripheral disc as the fungus grew out from the central disc.
as §2

Sclerotium rolfsii [6] = assay: as above; type: cell-based
Description: as §4, §2

Phytophthora sp. = assay: as above; type: cell-based
Description: as §4, §2

[7] = Chitinase substrate specificity, chitosan as substrate; type: biochemical; details: relative to glycol chitin
Description: as §1

[8] = enzyme preincubated 30 minutes with 10 mM reagent

[Cl-].[K+] [KCl]
reduction / inhibition of CpCHI activity (CpCHI; 10 mM): 7.67%
Relative activity (%) of CpCHI (CpCHI; [8]): 92.33 ± 1.53%

O=C(O)CN(CCN(CC(=O)O)CC(=O)O)CC(=O)O [EDTA]
Relative activity (%) of CpCHI (CpCHI): 93.33 ± 3.06%
reduction / inhibition of CpCHI activity (CpCHI): 6.67%

O=S(=O)([O-])[O-].[Cu+2] [CuSO4]
reduction / inhibition of CpCHI activity (CpCHI; 10 mM): 60%
Relative activity (%) of CpCHI (CpCHI; [8]): 40.00 ± 7.2%

O=S(=O)([O-])[O-].[Zn+2] [ZnSO4]
reduction / inhibition of CpCHI activity (CpCHI; 10 mM): 62.0%
Relative activity (%) of CpCHI (CpCHI; [8]): 38.00 ± 3.61%

[Cl][Fe]([Cl])[Cl] [FeCl3]
reduction / inhibition of CpCHI activity (CpCHI; 10 mM): 29.33%
Relative activity (%) of CpCHI (CpCHI; [8]): 70.67 ± 3.06%

O=[N+]([O-])[O-].[Ag+] [AgNO3]
reduction / inhibition of CpCHI activity (CpCHI; 10 mM): 16.33%
Relative activity (%) of CpCHI (CpCHI; [8]): 83.67 ± 2.52%

[Cl][Mn][Cl] [MnCl2]
reduction / inhibition of CpCHI activity (CpCHI; 10 mM): 64.7%
Relative activity (%) of CpCHI (CpCHI; [8]): 35.33 ± 3.06%

[Cl][Hg][Cl] [HgCl2]
reduction / inhibition of CpCHI activity (CpCHI; 10 mM): completely
Relative activity (%) of CpCHI (CpCHI; [8]): 0%

B1: CpCHI: novel class IV chitinase from papaya (Carica papaya) fruit, mature form expressed in E. coli and purified on Ni-NTA (protein, listed as Carica papaya)
chain: QNCGCAPNLCCSRFGFCGQGEAYCGEGCREGPCNKPSPTPGGGSSLAEIVTPDFFNGIINQAAAGCAGKSFCSRGGFLDAANSFPEFGKLGSVDDSKREIAAFFAHVTHETGHFCHIEEINGASHDYCDEGNTQYPCAPGKNYFGRGPIQLTWNYNYGAAGDALRLNLLGSPEMVARDAAVSFKTALWFWMKNVRPVINQGFGATIRAINGAIECNGGNPGTVQARIGYYRDYCAKFGVAPGENLSC
activity retained during long-term storage ([1]; 3 weeks at 30° C.): more than 60%
activity retained during long-term storage ([1]; 3 weeks at 37° C.): more than 50%
inhibition of spore germination (Alternaria brassicicola; 5 μM): 50%
inhibition of spore germination (Alternaria brassicicola; 10 μM): 98%
pathogenesis inhibition (Sclerotium rolfsii [2]; 5 μM): about 37%
pathogenesis inhibition (Sclerotium rolfsii [2]; 10 μM): ~83%
pathogenesis inhibition (Sclerotium rolfsii [2]; 15 μM): ~98%
Percentage of the symptom appearing (Sclerotium rolfsii [2]; Cabbage detached leaves, 5 μM sprayed): 55.33 ± 6.11%
Percentage of the symptom appearing (Sclerotium rolfsii [2]; Cabbage detached leaves, 10 μM sprayed): 14.33 ± 5.13%
Percentage of the symptom appearing (Sclerotium rolfsii [2]; Cabbage detached leaves, 15 μM sprayed): 1.66 ± 2.88%
Percentage of the symptom appearing (Sclerotium rolfsii [2]; bell pepper detached leaves, 5 μM sprayed): 66.67 ± 7.34%
Percentage of the symptom appearing (Sclerotium rolfsii [2]; bell pepper detached leaves, 10 μM sprayed): 23.33 ± 7.64%
Percentage of the symptom appearing (Sclerotium rolfsii [2]; bell pepper detached leaves, 15 μM sprayed): 3.33 ± 2.77%
Percentage of the symptom appearing (Sclerotium rolfsii [2]; tomato detached leaves, 5 μM sprayed): 65 ± 15%
Percentage of the symptom appearing (Sclerotium rolfsii [2]; tomato detached leaves, 10 μM sprayed): 13.33 ± 10.41%
Percentage of the symptom appearing (Sclerotium rolfsii [2]; tomato detached leaves, 15 μM sprayed): 1.66 ± 1.32%
IC50 (E. coli AD494): ~2.5 µM
IC50 (E. coli ED2566): ~2.5 µM
hydrolyzed products of glycol chitin ([3]; after 1 hour): (GlcNAc)3
hydrolyzed products of glycol chitin ([3]; after 2 hours): (GlcNAc)3, (GlcNAc)2, and (GlcNAc)
hydrolyzed products of glycol chitin ([3]; final products): (GlcNAc)2 and (GlcNAc)
broad pH optima ([4]; 30° C., 3 hours, glycol chitin): 5.0-9.0
optimal pH for the enzyme activity ([4]; 30° C., 3 hours, glycol chitin): 6.0
optimal temperature for the enzyme activity ([4]; pH 6.0, 3 hours, glycol chitin): 30 °C
specific activity ([4]; recombinant protein after dialysis, spectrophotometric assay, glycol chitin): 14.8 U mg^−1
Relative activity toward glycol chitin ([4]; substrate glycol chitin): 100%
activity maintained at different temperatures ([4]; temperatures between 10-50° C.): at least 80%
Relative activity toward collodial chitin [5]: 59% and 58.67 ± 5.03%
antifungal activity (Rhizoctonia solani): great antifungal activity
concentration that inhibited growth (Rhizoctonia solani): 15 µM
duration of the inhibited activity (Rhizoctonia solani; 15 μM): 7 days
antifungal activity (Sclerotium rolfsii [6]): great antifungal activity
concentration that inhibited growth (Sclerotium rolfsii [6]): 15 µM
duration of the inhibited activity (Sclerotium rolfsii [6]; 15 μM): 7 days
antifungal activity (Phytophthora sp.): great antifungal activity
concentration that inhibited growth (Phytophthora sp.): 15 µM
duration of the inhibited activity (Phytophthora sp.; 15 μM): 7 days
Relative activity toward chitosan [7]: 11% and 11.33 ± 2.52%
